# Measurements reported in PMC6712418.
# Target: Bovine plasma fibronectin (bovine) (UniProt P07589)
# Experiment: dynamic single-molecule force spectroscopy (AFM); fibronectin adsorbed on a gold surface; integrin or proteoglycan tethered by PEG to the AFM tip; PBS; trigger force 500 pN, no dwell; retraction speed varied; Bell-Evans fit of rupture force against ln(loading rate), fm = 10^7 s^-1 assumed
# Chain of Bovine plasma fibronectin (bovine) (P07589 33-2478): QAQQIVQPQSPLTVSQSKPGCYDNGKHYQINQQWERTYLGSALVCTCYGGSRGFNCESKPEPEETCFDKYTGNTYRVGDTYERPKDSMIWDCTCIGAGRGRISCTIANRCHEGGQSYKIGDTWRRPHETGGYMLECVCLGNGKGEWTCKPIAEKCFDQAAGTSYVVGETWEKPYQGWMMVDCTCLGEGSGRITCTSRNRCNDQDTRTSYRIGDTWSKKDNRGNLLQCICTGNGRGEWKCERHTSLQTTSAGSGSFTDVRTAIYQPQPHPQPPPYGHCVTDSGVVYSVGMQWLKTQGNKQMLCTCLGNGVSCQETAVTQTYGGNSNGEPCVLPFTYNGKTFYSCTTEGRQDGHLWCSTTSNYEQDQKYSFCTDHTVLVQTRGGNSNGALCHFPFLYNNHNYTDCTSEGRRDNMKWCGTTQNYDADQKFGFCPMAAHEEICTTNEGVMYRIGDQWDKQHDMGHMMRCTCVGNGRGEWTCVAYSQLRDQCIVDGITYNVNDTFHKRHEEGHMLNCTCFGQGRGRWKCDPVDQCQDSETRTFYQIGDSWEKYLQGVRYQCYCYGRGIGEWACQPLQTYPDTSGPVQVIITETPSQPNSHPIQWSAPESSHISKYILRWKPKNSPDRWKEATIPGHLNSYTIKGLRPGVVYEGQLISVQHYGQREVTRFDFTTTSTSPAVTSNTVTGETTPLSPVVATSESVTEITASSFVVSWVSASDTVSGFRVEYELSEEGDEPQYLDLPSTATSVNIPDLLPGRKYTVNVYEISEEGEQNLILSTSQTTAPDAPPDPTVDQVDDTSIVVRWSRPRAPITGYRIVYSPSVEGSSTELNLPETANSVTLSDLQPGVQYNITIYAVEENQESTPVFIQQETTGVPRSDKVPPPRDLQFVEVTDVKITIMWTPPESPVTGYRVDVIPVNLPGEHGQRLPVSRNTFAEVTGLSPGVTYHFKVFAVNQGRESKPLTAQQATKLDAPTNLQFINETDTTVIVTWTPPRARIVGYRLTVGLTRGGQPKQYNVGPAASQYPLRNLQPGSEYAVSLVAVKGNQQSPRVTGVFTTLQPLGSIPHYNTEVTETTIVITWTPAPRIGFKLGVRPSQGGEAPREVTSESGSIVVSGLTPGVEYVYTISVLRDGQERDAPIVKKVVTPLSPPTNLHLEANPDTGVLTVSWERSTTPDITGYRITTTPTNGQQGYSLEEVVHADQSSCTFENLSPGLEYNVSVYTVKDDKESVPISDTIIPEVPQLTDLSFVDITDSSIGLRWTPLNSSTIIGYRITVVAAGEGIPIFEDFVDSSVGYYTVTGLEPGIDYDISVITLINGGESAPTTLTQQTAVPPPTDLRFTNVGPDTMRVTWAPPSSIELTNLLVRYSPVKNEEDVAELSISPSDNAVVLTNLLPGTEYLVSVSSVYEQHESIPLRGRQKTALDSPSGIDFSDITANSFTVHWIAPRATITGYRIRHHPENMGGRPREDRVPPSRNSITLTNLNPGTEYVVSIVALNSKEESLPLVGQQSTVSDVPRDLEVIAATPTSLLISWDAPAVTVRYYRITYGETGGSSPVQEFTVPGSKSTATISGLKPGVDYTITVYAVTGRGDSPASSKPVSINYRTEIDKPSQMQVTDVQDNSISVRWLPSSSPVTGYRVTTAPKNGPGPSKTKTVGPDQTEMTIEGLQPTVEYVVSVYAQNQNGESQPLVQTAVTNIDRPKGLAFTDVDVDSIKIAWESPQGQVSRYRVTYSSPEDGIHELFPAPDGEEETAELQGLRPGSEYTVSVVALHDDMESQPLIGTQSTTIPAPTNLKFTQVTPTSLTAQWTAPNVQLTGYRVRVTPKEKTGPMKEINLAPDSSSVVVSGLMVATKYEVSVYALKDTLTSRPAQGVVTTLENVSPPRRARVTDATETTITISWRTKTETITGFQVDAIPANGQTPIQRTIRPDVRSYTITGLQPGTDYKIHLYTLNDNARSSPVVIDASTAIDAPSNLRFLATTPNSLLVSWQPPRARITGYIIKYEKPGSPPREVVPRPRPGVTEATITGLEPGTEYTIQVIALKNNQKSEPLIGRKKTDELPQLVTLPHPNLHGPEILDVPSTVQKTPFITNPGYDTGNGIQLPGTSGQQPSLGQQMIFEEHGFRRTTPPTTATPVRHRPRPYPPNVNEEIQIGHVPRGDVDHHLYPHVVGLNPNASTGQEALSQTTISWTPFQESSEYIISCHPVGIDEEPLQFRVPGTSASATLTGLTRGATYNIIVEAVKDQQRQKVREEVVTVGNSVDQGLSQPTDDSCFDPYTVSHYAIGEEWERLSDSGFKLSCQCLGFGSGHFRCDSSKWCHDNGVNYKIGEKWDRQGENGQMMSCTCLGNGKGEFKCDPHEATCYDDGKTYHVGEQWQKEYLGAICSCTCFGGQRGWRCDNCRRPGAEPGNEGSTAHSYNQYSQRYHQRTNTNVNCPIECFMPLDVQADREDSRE
substance,measurement,value
Recombinant human α5β1-integrin (from UniProt P08648 42-1049; P05556 21-728) (receptor),"dissociation rate Kd, inner barrier",70 s⁻¹
same,"dissociation rate Kd, outer barrier",0.18 s⁻¹
